Test results reported in US20250011363A1, “OPTIMIZED SHORTENED PEPTIDE THAT BINDS TO ACETYLCHOLINE RECEPTOR, AND USE THEREOF” (SKINMED CO., LTD., priority 2021, published 2025).

The substances below were run against acetylcholine receptor (Homo sapiens, UniProt P02708) (assay: SPR binding affinity (RU) of optimized 5mer/6mer/7mer peptides, Examples 6-7). Conditions: 6mer-1 Top sequence; SPR; peptides tested at 10 μM.
Method in brief: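 Response units from SPR give the binding values listed. Each synthesized peptide was run at 10 μM over the receptor.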

Chain of acetylcholine receptor (P02708 21-457): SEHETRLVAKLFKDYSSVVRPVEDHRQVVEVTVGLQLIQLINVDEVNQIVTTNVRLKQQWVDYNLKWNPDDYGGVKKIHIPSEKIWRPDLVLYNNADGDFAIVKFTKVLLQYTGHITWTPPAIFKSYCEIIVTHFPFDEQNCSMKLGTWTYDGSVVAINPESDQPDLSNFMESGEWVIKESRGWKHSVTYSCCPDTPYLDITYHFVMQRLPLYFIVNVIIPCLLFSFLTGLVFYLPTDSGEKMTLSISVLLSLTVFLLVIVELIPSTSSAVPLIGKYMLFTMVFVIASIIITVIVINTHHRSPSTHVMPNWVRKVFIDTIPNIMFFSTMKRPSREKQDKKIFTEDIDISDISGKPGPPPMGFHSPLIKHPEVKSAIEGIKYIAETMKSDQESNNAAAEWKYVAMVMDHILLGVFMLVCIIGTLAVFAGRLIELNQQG

Substance | Binding affinity
6mer-1-347 (KKQQSK) | 126 Ru
6mer-1-222 (RRRVRR) | 145 Ru
6mer-1-279 (RRLRYR) | 145 Ru
6mer-1-370 (RKQLYK) | 142 Ru
6mer-1-326 (RKWIYK) | 136 Ru
6mer-1-321 (RKQVRR) | 154 Ru
6mer-1-214 (RRSYCK) | 139 Ru

Same assay, conditions: 6mer-2 Top sequence; SPR; peptides tested at 10 μM

Substance | Binding affinity
6mer-2-175 (KVYLRK) | 137 Ru
6mer-2-193 (KWISKR) | 127 Ru
6mer-2-21 (RLFTRK) | 141 Ru
6mer-2-18 (RSILRR) | 124 Ru
6mer-2-191 (RQLLKR) | 154 Ru
6mer-2-142 (RWVLRR) | 121 Ru
6mer-2-198 (KWYYRK) | 139 Ru
6mer-2-1 (RRRLKK) | 131 Ru

Same assay, conditions: SPR, Resonance Units; 5mer Bottom sequence (bottom combinations); peptides tested at 10 μM

Substance | Binding affinity
5mer-633 (RAAKR) | 20 Ru
5mer-1009 (KMCAK) | 29 Ru
5mer-928 (KHMVR) | 27 Ru
5mer-802 (RITVR) | 27 Ru
5mer-946 (KYPWR) | 32 Ru
5mer-728 (KPHIK) | 19 Ru
5mer-634 (RMMMR) | 26 Ru
5mer-966 (RPSAK) | 32 Ru
5mer-635 (RMNGR) | 21 Ru
5mer-1058 (KIPWR) | 25 Ru
5mer-766 (RNMEK) | 30 Ru
5mer-672 (KHAPK) | 12 Ru
5mer-659 (KIHEK) | 22 Ru
5mer-1044 (RDCFK) | 22 Ru
5mer-678 (KYMGR) | 23 Ru
5mer-739 (KDCPR) | 16 Ru
5mer-752 (KAWVK) | 26 Ru
5mer-694 (KNNAR) | 24 Ru
5mer-1087 (KKKKR) | 11 Ru
5mer-666 (RHDWR) | 18 Ru
5mer-786 (RFNKK) | 29 Ru

Same assay, conditions: SPR, Resonance Units; peptides tested at 10 μM; 6mer-1 Bottom sequence

Substance | Binding affinity
6mer-1-1047 (RKATDK) | 30 Ru
6mer-1-1049 (KKDHKK) | 31 Ru
6mer-1-1110 (RKFTER) | 24 Ru
6mer-1-1061 (RRISIR) | 41 Ru
6mer-1-1135 (KKHTER) | 26 Ru
6mer-1-1038 (RRKKIR) | 21 Ru
6mer-1-1024 (RKTEIR) | 36 Ru
6mer-1-1046 (RKDPHR) | 38 Ru
6mer-1-1117 (KKEWFR) | 40 Ru
6mer-1-1007 (RKPTDR) | 39 Ru
6mer-1-1078 (RRPDIK) | 25 Ru

Same assay, conditions: SPR, Resonance Units; peptides tested at 10 μM; 6mer-1 Bottom sequence (Table 11)

Substance | Binding affinity
6mer-1-683 (KRDSMR) | 16 Ru
6mer-1-714 (KRTSFK) | 25 Ru
6mer-1-619 (KKIDKR) | 23 Ru
6mer-1-707 (KRFWPK) | 26 Ru
6mer-1-635 (KKTTWK) | 33 Ru
6mer-1-621 (RRMAGK) | 30 Ru
6mer-1-761 (RKETFR) | 33 Ru

Same assay, conditions: SPR, Resonance Units; peptides tested at 10 μM; 6mer-2 Bottom sequence

Substance | Binding affinity
6mer-2-615 (KDNGRK) | 27 Ru
6mer-2-797 (RHCIKR) | 19 Ru
6mer-2-926 (RPTVKR) | 31 Ru
6mer-2-947 (KTNWRK) | 41 Ru
6mer-2-710 (RNKKKK) | 14 Ru
6mer-2-792 (RAEDKR) | 13 Ru
6mer-2-746 (RIKVRK) | 26 Ru
6mer-2-667 (KHDMRR) | 25 Ru
6mer-2-641 (REEFRR) | 12 Ru
6mer-2-765 (KHSPRK) | 23 Ru

Same assay, conditions: SPR, Resonance Units; peptides tested at 10 μM; 6mer-2 Top sequence

Substance | Binding affinity
6mer-2-427 (RLQRRR) | 147 Ru
6mer-2-504 (RGLTRK) | 154 Ru
6mer-2-508 (RVFLKK) | 121 Ru
6mer-2-550 (RSFTKK) | 148 Ru
6mer-2-537 (KVLCKR) | 153 Ru
6mer-2-500 (KRICRR) | 146 Ru

Same assay, conditions: SPR, Resonance Units; peptides tested at 10 μM; 6mer-2 Top sequence (Table 12)

Substance | Binding affinity
6mer-2-305 (KQFYKK) | 154 Ru
6mer-2-318 (RGIQKK) | 145 Ru
6mer-2-311 (KVVTRK) | 147 Ru
6mer-2-341 (KVVTKR) | 144 Ru
6mer-2-331 (RWVSKK) | 148 Ru
6mer-2-290 (RQLYRK) | 135 Ru
6mer-2-302 (KQICKK) | 148 Ru
6mer-2-231 (KGISKK) | 144 Ru

Same assay, conditions: SPR, peptides at 10 μM; 6mer-2 Bottom sequence

Substance | Binding affinity
6mer-2-1100 (RTAPKK) | 24 Ru
6mer-2-1090 (KEMHKK) | 33 Ru
6mer-2-1013 (KPPDKR) | 23 Ru
6mer-2-1049 (KMSPRR) | 26 Ru
6mer-2-1056 (RNDERK) | 22 Ru
6mer-2-1128 (KNCMRK) | 36 Ru
6mer-2-1036 (KAKNKR) | 25 Ru
6mer-2-1190 (KACIRR) | 32 Ru
6mer-2-1032 (KETVKR) | 31 Ru

Same assay, conditions: SPR, peptides tested at 10 μM; 5mer Top sequence

Substance | Binding affinity
5mer-175 (RWQLK) | 63 Ru
5mer-125 (RVRQK) | 67 Ru
5mer-182 (RVLSK) | 70 Ru
5mer-400 (RWRCK) | 70 Ru
5mer-378 (RRLSK) | 65 Ru
5mer-395 (RWVCK) | 50 Ru
5mer-457 (RGQYK) | 59 Ru
5mer-136 (RRIYK) | 75 Ru
5mer-195 (KVVSR) | 82 Ru
5mer-366 (RQLQK) | 52 Ru
5mer-66 (KRLLR) | 80 Ru
5mer-451 (RQVLK) | 53 Ru
5mer-479 (RQYYK) | 70 Ru
5mer-8 (RQRSR) | 51 Ru
5mer-55 (RRFSR) | 58 Ru
5mer-68 (RGFYK) | 82 Ru
5mer-409 (KQIYK) | 62 Ru
5mer-145 (RSFSK) | 62 Ru
5mer-102 (RGFSK) | 82 Ru
5mer-181 (RSLLK) | 72 Ru
5mer-472 (RRYRK) | 55 Ru
5mer-413 (RWLTR) | 56 Ru
5mer-105 (RGQQR) | 50 Ru
5mer-403 (RRLYK) | 64 Ru

Same assay, conditions: SPR, peptides tested at 10 μM; 5mer Top sequence (top combinations)

Substance | Binding affinity
5mer-259 (RLIRK) | 71 Ru
5mer-571 (RRLTK) | 51 Ru
5mer-271 (RGRYR) | 68 Ru
5mer-582 (RGICK) | 82 Ru
5mer-262 (KSRCR) | 59 Ru
5mer-221 (RGRTR) | 58 Ru
5mer-255 (KQRTR) | 82 Ru
5mer-270 (RSQQR) | 52 Ru
5mer-223 (KQVRK) | 61 Ru
5mer-220 (KRILR) | 81 Ru
5mer-253 (RSLYR) | 75 Ru

Same assay, conditions: SPR, peptides tested at 10 μM; 6mer-1 Bottom sequence (Table 11)

Substance | Binding affinity
6mer-1-902 (RRDKMK) | 39 Ru
6mer-1-871 (KREWDR) | 30 Ru
6mer-1-923 (RRASDR) | 43 Ru
6mer-1-900 (RRDTGR) | 24 Ru

Same assay, conditions: SPR, peptides tested at 10 μM; 6mer-1 Top sequence

Substance | Binding affinity
6mer-1-593 (RKVYRK) | 148 Ru
6mer-1-536 (RRWFRK) | 151 Ru
6mer-1-584 (RKQVSK) | 127 Ru

Same assay, conditions: SPR, peptides tested at 10 μM; 6mer-1 Top sequence (top combinations)

Substance | Binding affinity
6mer-1-156 (RRSVTK) | 154 Ru
6mer-1-29 (KRLISR) | 124 Ru
6mer-1-191 (KKQILK) | 139 Ru
6mer-1-109 (KKRYLR) | 148 Ru
6mer-1-111 (RKVICR) | 144 Ru
6mer-1-76 (RRLQLK) | 126 Ru
6mer-1-96 (KRGVRK) | 125 Ru
6mer-1-175 (RRRIQK) | 137 Ru
6mer-1-192 (KRQYQR) | 127 Ru
6mer-1-14 (RKRFLK) | 145 Ru
6mer-1-36 (RKWQQK) | 124 Ru
6mer-1-174 (KKGVCR) | 154 Ru

Same assay, conditions: SPR; XRRGVRR-7mer and RRGVRRX-7mer

Substance | Binding affinity, values relative to the RRGVRR sequence
3677 (RRGVRRR) [compound 3677] | 188
3678 (RRGVRRH) [compound 3678] | 154
3657 (RRRGVRR) [compound 3657] | 185

Same assay, conditions: SPR; XRRQRR-6mer and RRQRRX-6mer

Substance | Binding affinity, relative value to the RRQRR sequence
3619 (DRRQRR) [compound 3619] | 163

Same assay, conditions: SPR; peptides tested at 10 μM; 5mer Bottom sequence

Substance | Binding affinity
5mer-1165 (RNMNR) | 21 Ru
5mer-1138 (RENHK) | 24 Ru
5mer-1193 (KHWFK) | 22 Ru
5mer-1119 (KMNIK) | 19 Ru
5mer-1198 (RAADK) | 25 Ru
5mer-857 (KMENR) | 23 Ru
